In the nanobody polyreactivity screen of Harvey et al. (2022):

Experiment: yeast display, Sf9 membrane polyspecificity reagent, FACS + sequencing; frameworks hold sequencing errors
Method in brief: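 Synthetic nanobody libraries on Saccharomyces cerevisiae BJ5465 were galactose-induced for 36–48 hours, stained 1 hour at 4 °C with 10% biotinylated, detergent-solubilized Sf9 membrane reagent and enriched on streptavidin microbeads. FACS then separated cells into low and high (top ~1%) gates by anti-HA (expression) and streptavidin (reagent binding) fluorescence. Genes were colony-PCR amplified, MiSeq 2 × 250 sequenced and CDR-length filtered. A clone's polyreactivity label is that of its gate of origin.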

Sequence: QVQLVESGGGLFQAGGSLRLSCAPSGFIFPKNPMSWYRHAPGKERELVAAISQSGGSTYYADSVKGRFTISRDNAKNTVYLQMKSLKADDTAVYSCAARYYLPNWVGGGEYNYWGQGTQVTVST
- polyreactivity (PSR sort gate): high polyreactivity

Sequence: QVQLVESGGGLVQAGGSLRLSCAASGRIFAVNAMGWYRQAPGKERELVASIRWSGGSTYYADSVKGRFTISRDNAKNTVYLQMNSLKPEDTAVYYCAAVIYLWGQGTQVTVSS
- polyreactivity (PSR sort gate): high polyreactivity

Sequence: QVQLVESGGGLVQAGGSLRLSCAASGFTIRRYAMGWYRQAPGKERELVAAITTGGSTYYADSVKGRFTISRDNAKNTVYLQMNSLKPEDTAVYYCAALYPYKQYRLGYDSWGQGTQVTVSS
- polyreactivity (PSR sort gate): high polyreactivity

Sequence: QVQLVESGGGLVQAGGSLRLSCAASGRIFSSYAMGWYRQAPGKERELVASIDWSDGSTYYADSVKGRFTIARDNAKNTVYLQMTSLKPEDTAVYYCAADFVPYLIYGYWGQGTQVTVTS
- polyreactivity (PSR sort gate): low polyreactivity

Sequence: QVQLVESGGGLVQAGGSLRLSCAASGRIFLYYAMGWYRQAPGKERELVAGISTGGSTNYADSVKGRFTISRDNAKNTVYLQMNSLKPEDTAVYYCAVVDVEEHVGHWGQGTQVTVSS
- polyreactivity (PSR sort gate): low polyreactivity

Sequence: QVQLVESGGGLVQAGGSLRLSCAASGRTFVVYAMGWYRQAPGKERELVAVISFTGDSTFYADSVKGRFTISRDNSKNTVYLQMNSLKPEDTAVYYCAADFRRVFSKYSYYLYFDFDYWGQGTQVTVSS
- polyreactivity (PSR sort gate): low polyreactivity

Sequence: QVQLVESGGGLVQAGGSLRLSCAASGRIFRSYAMGWYRQAPGKDRELVAAISSGDTTNYADSVKGRFTISRDNAKNTVYLQMNSLKPEDTAVYYCAAGFYYRGGYIQYEMNYWGQGTQVTVSS
- polyreactivity (PSR sort gate): high polyreactivity

Sequence: QVQLVESGGGLVQAGGSLRLSCAASGFTSSINAMGWYRQEPGKERELVAAIRSGGSTNYADSVKGRFTISRDNAKNTVYLQMNSLKPEDTAVYYCAAVTRVYGKTMGYWGQGTQVTVSS
- polyreactivity (PSR sort gate): high polyreactivity

Sequence: QVQLVESGGGLVQAGGSLRLSCAASGIIFYDYAMGWYRQAPGKERELVAAITSGGSTNYADSVKGRFTISRDNAKNTVYLQMNSLKPEDTAVYYCAATYWSWIPLRFYRGQGTQVTVSS
- polyreactivity (PSR sort gate): low polyreactivity

Sequence: QVQLVESWGGLVEAGGSLRLSCAASGRTFRSYAMVWYRQAPWKERELVAAISDGGSTNYADSVKGRFTISRDNAKNTVYLQMNSLKPEDTAVYYCAAVIFFAVFRFYYWGQGTQVTVSS
- polyreactivity (PSR sort gate): low polyreactivity

Sequence: QVQLVESGGGLVQAGGILRLSCAASGRILDGYAMGWYRQAPGKERELVAAISSRGGRTYYADSVKGRFTISRDNAKNTVYLQMNSLKPEDTAVYYCAATRYGTYEYNYWGQGTQVTVSS
- polyreactivity (PSR sort gate): high polyreactivity

Sequence: QVQLVESGGGLVQAGGSLRLSCAASGGTLDYNAMGWYRQAPGKERELVAGITSGGGTYYADSVKGRFTISRDNAKNTVYLQMNSVKPEDTAVYYCAARPWRSRYYGGLGRRFDYWGQGTQVTVSS
- polyreactivity (PSR sort gate): high polyreactivity

Sequence: QVQLVESGGGLVQAGGSLRLSCAASGRTFQFYTMGWYRQAPGKERELVAVITVSSAATFYADTVKGRFTISRDNAKNTVSLQMNSLKPEDTAVYYCAAGLVLIVGMDSWGQGTQVTVSS
- polyreactivity (PSR sort gate): low polyreactivity

Sequence: QVQLVESGGGLVQAGGSLRLSCAASGRTFGGYAMGWYRQAPGKERELVAAIRWSGGSTYYADSVKGRFTISRDNAKNTVYLQMNSLKPEDTAVYNCAARSHTSADGGRYYYWGQGTQVTVSS
- polyreactivity (PSR sort gate): high polyreactivity

Sequence: QVQLVESGGGLVQAGGSLRLSCAASGSIIKRNAMGWYRQAPGKERELVASISSGDGSTNYADSVKGRFTISRDNAKNTVYLQMNSLKPEDTAVYYCNAPFWGYRTSFSYPVVQRFDYWGQGTQVTVSS
- polyreactivity (PSR sort gate): low polyreactivity

Sequence: QVQLVESGGGLVQAGGSLRLSCAASGRTFYRNTMGWYRQAPGKERELVAGISYSGGSTYYADSVKGRFTISRDNAKNTVYLQMNSLKPEDTAVYYCATVRRYGYGYDYWGQGTQVTVSS
- polyreactivity (PSR sort gate): high polyreactivity

Sequence: QVQLVESGGGLVQAGGSLRLSCAASGRTFRIYALGWYRQAPGTERELVATIDSGGSTNYADSVKGRFTISRDNAKNTVYFQMNSLKPEDTAVYYCNAEDKPWYYLAGQAEYDSWGQGTQVTVSS
- polyreactivity (PSR sort gate): low polyreactivity

Sequence: QVQLVESGGGLVQAGGSLRLSCAASGGTIVPNAMGWYRQAPGTERELVATLTSSDTTNYADSVKGRFTISRDNAKNTVYLQMNSLKPEDTAVYYSAASFKLGYWDYYYWGQGTQVTVSS
- polyreactivity (PSR sort gate): low polyreactivity

Sequence: QVQLVESGGGLVQEGGSLRLSCAASGFISGFYGMGWYRQAPRKEREFVAAIEFIDGDTYYADSVKGRFTISRDNAKNTVYLQMNSLKPEDTAVYYCAADGSFWQFDYWGQGTQVTVSS
- polyreactivity (PSR sort gate): low polyreactivity

Sequence: QVQLVESGGGVVQAGGSLRLSCAASGRTFCIYAMGWYRPAPGKEREVVAAITGRGGSTHYADSVKGRFTISRDNAKNTVYLQMNSLKPEDTAVYYGAADYRYNRGITSNKDYDYWGQGTQVTVSS
- polyreactivity (PSR sort gate): low polyreactivity

Sequence: QVRLVESGGGLVQAGGSLRLSCAASGSTFPYYDMGWYRQAPGKERELVAAITWSSGSTYYADSVKGRFTISRDNAKNTVYLQMNSLKPEDTAVYYCAAELYSYREDYGAHYAYEYWGQGTQVTVSS
- polyreactivity (PSR sort gate): low polyreactivity

Sequence: QVQLVESGGGLVQAGGSLRLSCAASGRIFDYYAMGWYRQAPGKERELVASISRSGGSTYYADSVKGRFTISRDNAKNTVYLQMNSLKPEDTAVYYCAARRGYYYGRVGYWGQGTQVTVTS
- polyreactivity (PSR sort gate): high polyreactivity
